Measurements as given in patent US9035028B2, “Temperature sensitive conjugate compositions” (Emory University, priority 2010, dated 2015).

Experiments:
[1] = test system: jugular venous thrombosis; experiment: Model of jugular venous thrombosis; type: in vivo, mouse; conditions: 28° C., 15 minutes after the injury, vs control group and 37° C.
Description: C57BL/6 mice weighing from 20-25 g were used. Care and use of laboratory animals followed the national guidelines and were approved by the institutional animal care and ethics committees. Mice were anesthetized with isoflurane, following an intra-peritoneal injection with ketamine (100 mg/kg BW) and xylazine (20 mg/kg BW). The body core temperature was monitored with a digital thermometer, and controlled at either 28° C. or 37° C. with a thermal pad (Temperature Controller TR-200, Fine Science Tools Inc.). Reducing the body temperature to 28° C. was achieved by a gradual drop, at a rate of 0.3-0.4° C./min. The mice on the thermal pad were placed under a dissecting microscope (SZ61, Olympus). An incision of the skin was made directly on the top of trachea, and vessels used for experiment were bluntly isolated from surrounding tissues. […] After rinsing with normal saline, a nano-Doppler flow probe (0.5 VB, Transonic) was then positioned over the vessel and the blood flow rate (ml/min) was measured by a transit-time perivascular flow-meter (TS420, Transonic Systems Inc.). […] Jugular vein blood flow was recorded 15 minutes after induction of injury in mice pre-treated with EMP-scFv, eptifibatide or saline. The blood flow recorded at 1 minute was considered as the initial blood flow rate. […]

[2] = biological target: T1, GPIIb/IIIa on mouse platelets (Mus musculus, UniProt O54890+Q9QUM0); experiment: Flow cytometry: inhibition of fibrinogen binding to mouse platelets; type: cell-based
T1 construct: endogenous in cells
T1 sequence (Q9QUM0 32-1033): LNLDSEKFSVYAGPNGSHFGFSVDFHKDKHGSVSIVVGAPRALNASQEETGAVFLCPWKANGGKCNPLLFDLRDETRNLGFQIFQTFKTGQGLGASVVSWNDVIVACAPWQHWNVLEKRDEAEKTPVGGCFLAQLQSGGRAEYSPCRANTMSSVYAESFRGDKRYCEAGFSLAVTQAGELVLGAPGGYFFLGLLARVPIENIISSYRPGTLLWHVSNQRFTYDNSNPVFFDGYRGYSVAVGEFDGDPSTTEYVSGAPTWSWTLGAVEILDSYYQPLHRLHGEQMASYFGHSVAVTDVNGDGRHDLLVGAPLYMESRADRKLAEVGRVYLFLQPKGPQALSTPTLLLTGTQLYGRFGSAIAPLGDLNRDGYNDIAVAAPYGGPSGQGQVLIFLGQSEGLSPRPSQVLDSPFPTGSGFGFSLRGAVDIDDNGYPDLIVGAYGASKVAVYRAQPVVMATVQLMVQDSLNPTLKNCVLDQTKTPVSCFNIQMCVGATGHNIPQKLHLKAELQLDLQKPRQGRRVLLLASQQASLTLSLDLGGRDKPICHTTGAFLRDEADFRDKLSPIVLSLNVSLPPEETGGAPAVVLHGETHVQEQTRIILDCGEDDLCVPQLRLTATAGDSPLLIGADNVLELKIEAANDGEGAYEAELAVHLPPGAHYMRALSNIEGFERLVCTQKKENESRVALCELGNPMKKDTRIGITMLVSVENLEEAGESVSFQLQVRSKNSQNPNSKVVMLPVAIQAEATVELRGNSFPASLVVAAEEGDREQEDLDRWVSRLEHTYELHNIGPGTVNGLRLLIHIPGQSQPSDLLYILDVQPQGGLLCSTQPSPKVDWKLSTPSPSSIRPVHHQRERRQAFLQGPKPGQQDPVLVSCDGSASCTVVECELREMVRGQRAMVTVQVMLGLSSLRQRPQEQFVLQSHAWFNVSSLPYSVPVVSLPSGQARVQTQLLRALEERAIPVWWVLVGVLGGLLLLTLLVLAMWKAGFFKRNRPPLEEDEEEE
T1 sequence (O54890 26-787): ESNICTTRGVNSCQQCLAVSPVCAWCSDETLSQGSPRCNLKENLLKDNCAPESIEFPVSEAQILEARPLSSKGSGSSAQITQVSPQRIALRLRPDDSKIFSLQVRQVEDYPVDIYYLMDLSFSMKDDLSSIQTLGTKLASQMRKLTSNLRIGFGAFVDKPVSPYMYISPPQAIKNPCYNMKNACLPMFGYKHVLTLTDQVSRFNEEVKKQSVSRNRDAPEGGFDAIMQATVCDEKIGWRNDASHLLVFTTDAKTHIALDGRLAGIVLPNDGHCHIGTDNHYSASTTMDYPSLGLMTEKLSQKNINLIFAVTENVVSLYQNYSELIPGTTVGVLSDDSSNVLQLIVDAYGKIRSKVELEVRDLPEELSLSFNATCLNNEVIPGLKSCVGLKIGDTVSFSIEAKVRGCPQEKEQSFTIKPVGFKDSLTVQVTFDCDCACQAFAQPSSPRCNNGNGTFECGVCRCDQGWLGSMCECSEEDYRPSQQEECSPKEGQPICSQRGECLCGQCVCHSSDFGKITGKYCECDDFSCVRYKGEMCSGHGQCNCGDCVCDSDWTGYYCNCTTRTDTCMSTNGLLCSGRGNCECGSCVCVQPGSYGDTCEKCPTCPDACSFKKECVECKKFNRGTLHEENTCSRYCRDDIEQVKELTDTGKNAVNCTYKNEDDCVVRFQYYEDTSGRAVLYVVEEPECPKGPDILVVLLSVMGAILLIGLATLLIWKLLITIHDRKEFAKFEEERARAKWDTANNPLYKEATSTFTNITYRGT
Description: (§1) Mouse blood was collected by intracardiac puncture with a 27-gauge needle from C57BL/6 mice and anticoagulated with non-fractionated heparin (20 U/mL). A volume of 50 μl was washed with 1 mL modified Tyrode's buffer (150 mM NaCl, 2.5 mM KCl, 1.2 mM NaHCO3, 0.1% BSA, 0.1% Glucose) and centrifuged at 1200×g for 6 min. The supernatant was discarded and the pellet was resuspended in 1 mL modified Tyrode's buffer containing 2 mM MgCl2 and 2 mM CaCl2.
(§2) Human PRP was diluted 1/50 in modified Tyrode's buffer containing 2 mM MgCl2 and 2 mM CaCl2. Platelets were either activated by addition of 20 μM ADP, or non activated, followed by the incubation with 15 and 50 μg/mL EMP-scFv fusion protein or EMP at 22° C., 32° C. and at 37° C. for 15 min. Mouse platelets were either pre-activated for 10 min by addition of 0.1 U/mL thrombin (Enzyme Research Laboratories), or non activated, before the incubation with 15 and 50 μg/mL of EMP-scFv fusion protein at 22° C., 32° C. or 37° C. for 15 min. In both, human and mouse samples, EMP-scFv was detected via 15 min in-dark incubation with secondary antibody (Penta-His Alexa Fluor 488, Qiagen) directed against the His(6)-tag of the single-chain antibody.
Fibrinogen binding to human activated platelets in the presence of EMP-scFv was determined with a polyclonal rabbit anti-human fibrinogen FITC-labelled antibody (DakoCytomation), while the effects of EMP-scFv on fibrinogen binding to mouse platelets were determined using FITC-conjugated rabbit anti-fibrinogen polyclonal antibody (Cemfret). Fluorescence detection was performed as described above. Samples were measured in a FACSCalibur® flow cytometer (Becton Dickinson), after fixation with 1× CellFIX® (Becton Dickinson).

[3] = Circular dichroism (CD) spectra and thermal transition profile; type: physicochemical
Description: The mathematical fitting of the CD data allowed the determination of the transition temperature (Tt) resulting from conformational change of EMP as the temperature is increased. The mathematical fitting of the CD data to the van't Hoff equation allowed the determination of the transition temperature (Tt) resulting from conformational change of EMP and EMP-scFv as the temperature is increased.
Circular dichroism (CD) spectra were recorded on a Jasco J-810 spectropolarimeter equipped with a PFD-425S Peltier temperature control unit in 0.1 cm sealed quartz cells at concentrations of 7.5 μM (EMP), 8.4 μM (scFv) and 4.1 μM (EMP-scFv) in 50 mM sodium phosphate buffer, pH 7.4. Temperature/wavelength CD-scans were performed within the temperature range from 5° C. to 35° C. with equilibration for 10 min at each temperature. Spectra were obtained from 260 to 190 nm at a resolution of 0.5 nm and at a scanning speed of 50 nm/min. The CD curves represented the average of five measurements and were smoothed using the means-movement method on the interval analysis of the spectral manager program. CD data are reported as mean residue ellipticity ([θ], deg cm^2 dmol^−1). Thermal transition curves were plotted by the mean residue ellipticity as a function of temperature for the disappearance of the random coil and the appearance of the β-turn structure.

[4] = test system: human platelets; experiment: 96-well plate light transmission aggregometry, ADP-driven platelet aggregation; type: cell-based; conditions: 22° C.
Description: Light transmission aggregometry was performed using a Biorad Benchmark plate reader. After incubation of human PRP with EMP-scFv (15 μg/mL), vehicle (PBS) or the GPIIb/IIIa blocker abciximab (10 μg/mL) (Reopro®, Eli Lilly, Indianapolis, U.S.A.) for 10 minutes at different temperatures, the aggregation was induced by the addition of 2 or 20 μM ADP with vigorous stirring in a 96-well plate. The absorbance was determined at 595 nm every 15 seconds for 16 minutes between vigorous shaking at 22° C. and 37° C.

[5] = biological target: T1, GPIIb/IIIa on mouse platelets; experiment: Flow cytometry: binding to mouse platelets
Description: as §1, §2

- fibrinogen binding to activated mouse platelets ([2]; 22° C.): significant decrease
- fibrinogen binding to activated mouse platelets ([2]; 32° C.): inhibit the binding of fibrinogen
- fibrinogen binding to activated mouse platelets ([2]; 37° C.): did not affect
- binding to activated murine platelets ([5]; 22° C., mouse whole blood): binds
- binding to resting mouse platelets ([5]; either 22° C. or 37° C.): did not bind
B1: EMP-scFv: fusion of elastin mimetic polypeptide (EMP) and activation-specific GPIIb/IIIa-blocking single-chain antibody; 704 amino acids, approximately 70 kDa (protein)
chain: MAVPAVGIPAVGIPAVGIPAVGIPAVGIPAVGIPAVGIPAVGIPAVGIPAVGIPAVGIPAVGIPAVGIPAVGIPAVGIPAVGIPAVGIPAVGIPAVGIPAVGIPAVGIPAVGIPAVGIPAVGIPAVGIPAVGIPAVGIPAVGIPAVGIPAVGIPAVGIPAVGIPAVGIPAVGIPAVGIPAVGIPAVGIPAVGIPAVGIPAVGIPAVGIPAVGIPAVGIPAVGIPAVGIPAVGIPAVGIPAVGIPAVGIPAVGIPAVGIPAVGIPAVGIPAVGIPAVGIPAVGIPAVGIPAVGIPAVGIPAVGIPAVGIPAVGIPAVGIPAVGIPAVGIPAVGIPAVGIPAVGIPAVGIPAVGIPAVGIPAVGIPAVGIPAVGIPAVGIPAVGIPAVGIPAVGIPAVGIPAVGIPGGGGSMMAEVQLVESGGGLVQPGGSLRLSCAASGFMFSRYAMSWVRQAPGKGPEWVSGISGSGGSTYYADSVKGRFTVSRDNSKNTLYLQMNSLRAEDTAVYYCARIFTHRSRGDVPDQTSFDYWGQGTLVTVSSGSASAPKLEEGEFSEARVSSELTQDPAVSVALGQTVRITCQGDSLRNFYASWYQQKPGQAPTLVIYGLSKRPSGIPDRFSASSSGNTASLTITGAQAEDEADYYCLLYYGGGQQGVFGGGTKLTVLRQPKAAPSVTLFPPSSAAAGSEQKLISEEDLNSHHHHHH
- percentage of initial blood flow [1]: significantly higher levels of blood flow
- transition temperature (Tt), disappearance of the random coil ([3]; CD data at 200 nm): 15 °C
- transition temperature (Tt), appearance of the β-turn structure ([3]; CD data at 215 nm): 28 °C
- temperature at which structural change and hydrophobic collapse were completed ([3]; thermal transition curve): higher than 35 °C
- ADP-driven platelet aggregation [4]: effective inhibition
